Consider 1 molecule from publication PMC7105484, “Crystal structures of REF6 and its complex with DNA reveal diverse recognition mechanisms” (Cell Discovery, 2020).

One series has as its target T1, REF6 Y1282A (Arabidopsis thaliana, UniProt Q9STM3 1223-1360, Y1282A).
T1 sequence: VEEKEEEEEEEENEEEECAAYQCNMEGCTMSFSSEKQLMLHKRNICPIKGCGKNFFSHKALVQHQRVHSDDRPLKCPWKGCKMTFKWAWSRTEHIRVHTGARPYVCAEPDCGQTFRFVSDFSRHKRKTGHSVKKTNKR
The series is described as follows: MST; MST: 20 mM HEPES pH 7.3, 150 mM NaCl, 0.2 mM TCEP, 0.5% CA-630, 25 C; EMSA: 30 uM protein, 10 uM dsDNA, 20 mM Tris pH 8.0, 100 mM NaCl, 2.5 mM MgCl2, 0.1% CA-630, 10% glycerol, 1 uM ZnSO4, 1 mM DTT, 4 C. The settings on record: protein: recombinant; tags: His6-MBP or GST, TEV-cleavable; label: FAM in MST; none in crystal and EMSA; 5' overhang 1 nt on both strands, 15 bp. For orientation: In EMSA bound probe runs differently from free probe, usually more slowly.

The target in a further series is T2, REF6 E1315A (Arabidopsis thaliana, UniProt Q9STM3 1223-1360, E1315A).
T2 sequence: T1 sequence with A60Y, E93A
Described as above. The settings on record: protein: recombinant; tags: His6-MBP or GST, TEV-cleavable; label: FAM in MST; none in crystal and EMSA; 5' overhang 1 nt on both strands, 15 bp.

A further series concerns the target T3, REF6 ZnF1-4 WT (Arabidopsis thaliana, UniProt Q9STM3 1223-1360).
T3 sequence: T1 sequence with A60Y
The series is described as above. The settings on record: protein: recombinant; tags: His6-MBP or GST tag, TEV-cleavable (cleaved when necessary); label: FAM in MST; none in crystal and EMSA; 5' overhang 1 nt on both strands, 15 bp.

In another series the target is T4, REF6 F1339A (Arabidopsis thaliana, UniProt Q9STM3 1223-1360, F1339A).
T4 sequence: T1 sequence with A60Y, F117A
Described as above. The note with it: protein: recombinant; tags: His6-MBP or GST, TEV-cleavable; label: FAM in MST; none in crystal and EMSA; 5' overhang 1 nt on both strands, 15 bp.

Another series addresses T5, REF6 D1342A (Arabidopsis thaliana, UniProt Q9STM3 1223-1360, D1342A).
T5 sequence: T1 sequence with A60Y, D120A
The series is described as above. The settings on record: protein: recombinant; tags: His6-MBP or GST, TEV-cleavable; label: FAM in MST; none in crystal and EMSA; 5' overhang 1 nt on both strands, 15 bp.

The next series addresses T6, REF6 W1311A (Arabidopsis thaliana, UniProt Q9STM3 1223-1360, W1311A).
T6 sequence: T1 sequence with A60Y, W89A
The series is described as follows: MST and EMSA; marked abrogation; MST: 20 mM HEPES pH 7.3, 150 mM NaCl, 0.2 mM TCEP, 0.5% CA-630, 25 C; EMSA: 30 uM protein, 10 uM dsDNA, 20 mM Tris pH 8.0, 100 mM NaCl, 2.5 mM MgCl2, 0.1% CA-630, 10% glycerol, 1 uM ZnSO4, 1 mM DTT, 4 C. The settings on record: protein: recombinant; tags: His6-MBP or GST, TEV-cleavable; label: FAM in MST; none in crystal and EMSA; 5' overhang 1 nt on both strands, 15 bp.

A further series addresses T7, REF6 S1341W (Arabidopsis thaliana, UniProt Q9STM3 1223-1360, S1341W).
T7 sequence: T1 sequence with A60Y, S119W
Described as above. The settings on record: protein: recombinant; tags: His6-MBP or GST, TEV-cleavable; label: FAM in MST; none in crystal and EMSA; 5' overhang 1 nt on both strands, 15 bp.

Changes are numbered by the printed parent chain.

B1: NAC004 m5 (dsDNA)
DNA 1: CTTTCTCTGTTTTGTC
DNA 2: GGACAAAACAGAGAAA
On to B1, for which the Kd with REF6 Y1282A was 1.1 µM; with REF6 E1315A, 3.7 µM; with REF6 ZnF1-4 WT, 0.4 µM; in the series with REF6 F1339A, 0.5 µM; in the series with REF6 D1342A, 1.3 µM. In addition, the binding result in the series with REF6 W1311A and in the series with REF6 S1341W was “no binding” in each case.

As a reminder, the Kd is the concentration at which binding is half-saturated.
